# Measurements taken from paper PMC11380581 (Cell, 2024).
# Tests used:
# [1] = target: NRC3-L21E-3xFlag (active NRC3); experiment: negative-stain EM
# [2] = target: Flag-tagged NRC4 co-expressed with HA-tagged Bs2 and AvrBs2 (Figure S6F) (N. benthamiana); experiment: native gel or EMSA
# negative-stain EM = target: the molecule itself; experiment: negative-stain EM
# cryo-EM structure [3] = target: the molecule itself; experiment: cryo-EM structure
# cryo-EM structure [4] = target: the molecule itself; experiment: cryo-EM structure; remark: listed apart in the source
# [5] = target: the molecule itself; experiment: native gel or EMSA + other: negative-stain EM
molecule,measurement,setting,value
NRC3-L21E-3xFlag (active NRC3) (natural protein),stoichiometry N,[1],6
Flag-tagged NRC4 co-expressed with HA-tagged Bs2 and AvrBs2 (Figure S6F) (from UniProt A0A5J6DCT7 1-881) (natural protein),stoichiometry N,[2],6
NRC0-EEE-3XFlag (active NRC0) (natural protein) MADAVVEFELLNEKQLELYHVDLLSGVKDEVESLHRELSLMKAFLKDSREKRSEYEYVRELVSQITIVAYEAEDIIDTFVTNAAMQKARSTVRRAFHVFDHSSKLRNVAKEIESIKVKVKEIYDKKMFGIQSLHGGESSHRSPPQKRVPMVEEENVVGFDDEARKISSRLTNGSEELEIISIVGMGGLGKTTLAKKVYTDSSIEFHFYNRAWIYVSQLYSRKEVFLGILDSLSLITDEMYKMNDEKLAGELFSHLRSKRYLVVIDDVWTMEAWDDLQMAFPKTATGSRILLTTRNTEVALHANPEGLPHHLRFLTHEESWELLSKKVFRKGICPLELEDIGLQIAKKCYGLPLAIVVVSGLLLKKEKTRDWWKKIANDVSSYVARDPKQCMDVLALSYKHLPDHLKVCFIYFGVFPEDFEIPVWKLLRLWTSEGFVQKMGQECLEDTAEEYLEDLVDRNLVLVAKKRASGRIKTCRIHDMLRDLSVKMGSEEKFLEVFKESAQNHSLSPISKYHRRLCVHSHFLDFITSRPFGPNVRSFLCFASEEMELLREHTSFLHEAFRLVRVLDLKYINFPRFPTEIVQLVHLRYIALSGNFRVLPASISKLWNLETLIVGTKSRELDIQVDIWKMSQFKHLYTSGLSCLRGPPAKTRKDNADPFVRRNIQTISTVLPDCCKENILARTPGLRKLGIRGKLATLVATNGDSSLFDNLAKLDNLETLKLLNDTFPLPPSQCQIPGLPQSYKFPPNLKKLTLSDTFLDWSHISTLGMLPNLEVLKLKDYAFKGTQWEPLDGGFRLLRVLHIGRTNLEHWNASGHHFPRLQQVFLKHCSSLNEIPFGLVEVSSLQNIELFWPTPAAAASARIIQQEKQEGDIKDNVFKLVIYPPDI,stoichiometry N,negative-stain EM,6
"NRC4 L9E D478V (NLR Required for Cell Death 4 with the L9E and D478V mutations) (natural protein, N. benthamiana) MADAVVNFEVENLLQLLTDNVKLIGSAKGELENLLKEVQHLKGFLDDAAKLPSDSEQWKVLVEEIQKTVHTAEDAVDKFVVQAKLHKEKNKMARILDVGHLATVRNLAAEVKGIHDQVKELRLNNQALQARPTLELPKKGSSETTQQGPALEDDEVVGFDEEANKVINRLVKESKDLDIIPVVGMPGLGKTTLARKIYKDPKLSYEFFGVHWVYVGQSYKIKDVFLNILKFFTRRTEDYQHEDVDALAKVIAGFINKGGRCLICLDDVWETKVIDYVKTIFPENEKGHRVMMTTRNKVLATYANSDPHDLKFLTPKESFELLVKRVFGKKPCPKDLVGHGESIAGKCGGVPLAVVVIAGALRGRPNTSDWIRVERNVVQHLYTNSEESCLKFVEMSYDHLPQEVQTCFLYCGVFPRGFDIPSWKVIRLWIAEGLIKPQESYTLEEIAEFYLNDLVNRNLVILQQKRSDGQIKTCRLHVMLHQFCKKEASNKWLFQEVSLTPDQAIPIEDPNKSRRLCIQPSNLKDFLSKKPSAEHVRSFYCFSSKEKQIRGLTPNDIKLIHKAFPLVRVLDVESLKFLFSKDFNQLFHLRYIAISGDFNAIPLTFGKFWNLQTLILNTSTSESTLDVKADIWNMLQLRHLHTNIPAKLQPPTATTSGKASCLQTLCMVAPESCEKEVLAKACHLKKLSIRGQMAAFLGAYKGGINNLVELKCLEQLKLLNDVLYMNKAPHLPQTFSQLVRTVKKLTLTNTRFAWSEADKLGQLESLEILKFKENAFAGDSWKPKMGFSALRVLWIERAEFETWEASEINFPVLRNLVLMSCDKLETVPFELANLSDLYEMRLENTSKAVKSAKAILESKTDKNIKFNLTIFPPEAGSKATQ",stoichiometry N,cryo-EM structure [3],6
same,stoichiometry N,cryo-EM structure [4],12
"wild type NRC4, Flag-tagged (natural protein, N. benthamiana) MADAVVNFLVENLLQLLTDNVKLIGSAKGELENLLKEVQHLKGFLDDAAKLPSDSEQWKVLVEEIQKTVHTAEDAVDKFVVQAKLHKEKNKMARILDVGHLATVRNLAAEVKGIHDQVKELRLNNQALQARPTLELPKKGSSETTQQGPALEDDEVVGFDEEANKVINRLVKESKDLDIIPVVGMPGLGKTTLARKIYKDPKLSYEFFGVHWVYVGQSYKIKDVFLNILKFFTRRTEDYQHEDVDALAKVIAGFINKGGRCLICLDDVWETKVIDYVKTIFPENEKGHRVMMTTRNKVLATYANSDPHDLKFLTPKESFELLVKRVFGKKPCPKDLVGHGESIAGKCGGVPLAVVVIAGALRGRPNTSDWIRVERNVVQHLYTNSEESCLKFVEMSYDHLPQEVQTCFLYCGVFPRGFDIPSWKVIRLWIAEGLIKPQESYTLEEIAEFYLNDLVNRNLVILQQKRSDGQIKTCRLHDMLHQFCKKEASNKWLFQEVSLTPDQAIPIEDPNKSRRLCIQPSNLKDFLSKKPSAEHVRSFYCFSSKEKQIRGLTPNDIKLIHKAFPLVRVLDVESLKFLFSKDFNQLFHLRYIAISGDFNAIPLTFGKFWNLQTLILNTSTSESTLDVKADIWNMLQLRHLHTNIPAKLQPPTATTSGKASCLQTLCMVAPESCEKEVLAKACHLKKLSIRGQMAAFLGAYKGGINNLVELKCLEQLKLLNDVLYMNKAPHLPQTFSQLVRTVKKLTLTNTRFAWSEADKLGQLESLEILKFKENAFAGDSWKPKMGFSALRVLWIERAEFETWEASEINFPVLRNLVLMSCDKLETVPFELANLSDLYEMRLENTSKAVKSAKAILESKTDKNIKFNLTIFPPEAGSKATQ",stoichiometry N,[5],2
"NRC4 L9E (natural protein, N. benthamiana) MADAVVNFEVENLLQLLTDNVKLIGSAKGELENLLKEVQHLKGFLDDAAKLPSDSEQWKVLVEEIQKTVHTAEDAVDKFVVQAKLHKEKNKMARILDVGHLATVRNLAAEVKGIHDQVKELRLNNQALQARPTLELPKKGSSETTQQGPALEDDEVVGFDEEANKVINRLVKESKDLDIIPVVGMPGLGKTTLARKIYKDPKLSYEFFGVHWVYVGQSYKIKDVFLNILKFFTRRTEDYQHEDVDALAKVIAGFINKGGRCLICLDDVWETKVIDYVKTIFPENEKGHRVMMTTRNKVLATYANSDPHDLKFLTPKESFELLVKRVFGKKPCPKDLVGHGESIAGKCGGVPLAVVVIAGALRGRPNTSDWIRVERNVVQHLYTNSEESCLKFVEMSYDHLPQEVQTCFLYCGVFPRGFDIPSWKVIRLWIAEGLIKPQESYTLEEIAEFYLNDLVNRNLVILQQKRSDGQIKTCRLHDMLHQFCKKEASNKWLFQEVSLTPDQAIPIEDPNKSRRLCIQPSNLKDFLSKKPSAEHVRSFYCFSSKEKQIRGLTPNDIKLIHKAFPLVRVLDVESLKFLFSKDFNQLFHLRYIAISGDFNAIPLTFGKFWNLQTLILNTSTSESTLDVKADIWNMLQLRHLHTNIPAKLQPPTATTSGKASCLQTLCMVAPESCEKEVLAKACHLKKLSIRGQMAAFLGAYKGGINNLVELKCLEQLKLLNDVLYMNKAPHLPQTFSQLVRTVKKLTLTNTRFAWSEADKLGQLESLEILKFKENAFAGDSWKPKMGFSALRVLWIERAEFETWEASEINFPVLRNLVLMSCDKLETVPFELANLSDLYEMRLENTSKAVKSAKAILESKTDKNIKFNLTIFPPEAGSKATQ",stoichiometry N,negative-stain EM,6
